Measurements: patent publication US20230192860A1 (published 2023)
Substitutions are numbered along the chain they refer to.

B1: P1-068761_E30D_E32Y (antibody, V domains shown)
VH: EVQLVESGGGLVQPGKSLRLSCAASGFTLDDYAMHWVRQAPGKGLEWVSGINWNSEEIGYADSVKGRFTISRDNAKNSLYLQMNSLRTEDTALYYCAKVPGYSHGWIDAEDVWGQGTMVTVSS
VL: not shown
B2: P1-068761_E32Y_E56N (antibody, V domains shown)
VH: B1 VH with D30E, E57N
VL: not shown
B3: P1-068761_E55A_E100fF (antibody, V domains shown)
VH: B1 VH with D30E, Y32E, E56A, E110F
VL: not shown
B4: P1-061029.IgG1.3 (antibody, V domains shown)
VH: B1 VH with E56A, E57N, H104G, E110F
VL: not shown
B5: P1-068767_E100fF_D102V (antibody, V domains shown)
VH: B1 VH with D30E, N52D, E57N, H104G, E110F
VL: not shown
B6: P1-068767_E55A_D102V (antibody, V domains shown)
VH: B1 VH with D30E, N52D, E56A, E57N, H104G
VL: not shown
B7: P1-068767_D52N_D102V (antibody, V domains shown)
VH: B1 VH with D30E, E57N, H104G
VL: not shown
B8: P1-068767_E30D_D102V (antibody, V domains shown)
VH: B1 VH with N52D, E57N, H104G
VL: not shown
B9: P1-068767_D102V (antibody, V domains shown)
VH: B1 VH with D30E, N52D, E57N, H104G
VL: not shown

Molecular target: T1, monovalent hVISTA-ECD (amino acids 32-193 of SEQ ID NO: 1 with a 7xHis tail) (UniProt Q9H7M9 33-193)
Test: SPR; pH 6.0

T1 sequence (Q9H7M9 other isoform, or with tags, fused parts or gaps): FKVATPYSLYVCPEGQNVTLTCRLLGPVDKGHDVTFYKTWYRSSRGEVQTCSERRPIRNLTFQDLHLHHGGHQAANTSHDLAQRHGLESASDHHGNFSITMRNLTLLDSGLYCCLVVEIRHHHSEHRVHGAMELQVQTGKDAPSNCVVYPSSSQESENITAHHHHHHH

| Binder | Kd |
| --- | --- |
| B1 | 0.00024 µM |
| B2 | 0.0012 µM |
| B3 | 0.00026 µM |

Molecular target: T1, monovalent hVISTA-ECD (amino acids …)
Test: SPR; pH 6.7

| Binder | Kd |
| --- | --- |
| B1 | 0.002 µM |
| B2 | 0.0051 µM |
| B3 | 0.0015 µM |
| B4 | 0.011 µM |

Molecular target: T1, monovalent hVISTA-ECD (amino acids …)
Test: SPR; pH 7.4

| Binder | Kd |
| --- | --- |
| B1 | 0.021 µM |
| B2 | 0.042 µM |
| B3 | 0.014 µM |
| B4 | 0.032 µM |

Molecular target: T1, monovalent hVISTA-ECD (amino acids …)
Test: SPR; pH 6.0
Remark: another data set of the same source

| Binder | Kd |
| --- | --- |
| B5 | 0.0027 µM |
| B6 | 0.0019 µM |
| B7 | 0.00088 µM |
| B8 | 0.0021 µM |
| B9 | 0.0013 µM |

Molecular target: T1, monovalent hVISTA-ECD (amino acids …)
Test: SPR; pH 6.7
Remark: another data set of the same source

| Binder | Kd |
| --- | --- |
| B5 | 0.011 µM |
| B6 | 0.015 µM |
| B7 | 0.0075 µM |
| B8 | 0.017 µM |
| B9 | 0.014 µM |
| B4 | 0.011 µM |

Molecular target: T1, monovalent hVISTA-ECD (amino acids …)
Test: SPR; pH 7.4
Remark: another data set of the same source

| Binder | Kd |
| --- | --- |
| B5 | 0.041 µM |
| B6 | 0.28 µM |
| B7 | 0.087 µM |
| B8 | 0.22 µM |
| B9 | 0.17 µM |
| B4 | 0.032 µM |
